In patent publication CN112646036A one finds Kd data, which are given here for one molecule.

For the experiment, the target named is CD23的多肽抗原 (synthetic CD23 peptide antigens of SEQ ID NO:1-3). The experiment is described as follows: indirect ELISA; peptide antigens of SEQ ID NO:1-3 on the 96-well plate at varied molar concentrations, antibody at 0.125 μg/mL (about 0.83 nmol/L), HRP goat anti-mouse IgG, OD450; value given at a peptide concentration of 0.56 μmol/L.

B1: 365A2D1抗CD23单克隆抗体 (anti-CD23 monoclonal antibody secreted by mouse hybridoma cell line 365A2D1) (antibody, V domains shown)
VH: EVQLQESGGGLVQPKGSLKLSCAASGYTFNTYAMHWVRQAPGKGLEWVARIRSKSNNYEPYYADSVKDRFTISRDDSQSILYLQMNNLKTEDTAMYYCVREYYDAMDYWGQGTSVTVSS
VL: EIVMTQAAPSVSVTPGESVSISCRSSQSLLHSNGNTYLYWFLQRPGQSPHLLISRVSNLASGVPDRFSGSGSGTAFTLRISRVEAEDVGVYYCMQGLEFPWTFGGGTKLEIK
For orientation: Kd means the equilibrium constant for the complex coming apart. In turn, B1 displayed a dissociation constant Kd of 700 nM.
